Measurements: the DeepSol protein solubility set

Assay: soluble on expression in E. coli; label from the status in PepcDB or PDB records

Row | Sequence | soluble on expression in E. coli
1 | MSLRKPNEKTMKTKFCRTAVYCLCCFMFIQPITGSQVNDTHEGVLHIDKQKTRKVSRVQYGFHYEEIGMIGEGALHAELVRNRSFEEATPPADLAVKNGLYQNVPNPRGKNKDVFHVDPLIGWNTYPLSYTPIFISRTEENPLNKENKYSMLVNVTEDIANNPEAMILNRGYYGMNLRKEVSYHLSMYIKSKNYTALLQVMLVDEQGKPVSTQLVLDVKGKEWTKLTGTLKPDKDVKRGMLAIQPLGKGQFQLDVVSLFPSDTWDNGKSVFRADIMQNLKEYAPDFIRFPGGCIVHGVNEATMYHWKKTIGPIENRPGQWSKWAPYYRTDGIGYHEFYELCEYLGADAMYVIPTGMICTGWVKQSSPWNFIQPDVDLDAYIQDALDAIEYAIGPETSKWGALRVKNGHPKPFPLKYIEIGNEDFGPVYWERYEKIYQALHRQYPDLIYIANSIIGKENDDKRIDIAKFVNPKNVKVFDEHHYQPVEWACKQHYRFDNYERGIADLFVGELGIDGKYPYNLLASGAVRMSLERNGDLNPLLAERPVMRHWDFSEHRQLHSMLINGVDCSIRTSFYYLSKMFRDHTFDVCLDAGIQGMKGLQNVFVTMGYDSESKEYILKLINLRKQEVVLQTAVKGFGKKIQAQKITLSLEPGKNNTPEMPDAVKPVQSTVTLDLNKDLQLEASSMIVYRFKEGHHHHHH | soluble
2 | MKHEIKHDPAFRALTPKWHHGYRFQYEPAQKAHVVLYPEGMIKLNDSASLIGGLIDGERTIAAIIAELQREFPNIPELGMDVDDFMKVAKEKYWIDLV | not soluble
3 | MSGGLLIESVIPGSIASELEIEPGDRLVAVNNRPLRDIVDYNFHADGEELLLEIVKPSGEVWEVEVERDDDEALGLVFAAPEPARCGNRCVFCFVHQLPKGLRRPLYVKDEDYRLSFLYGNYVTLSNIGEEDLQRIIEQRLSPLYISVHATDPALRERLLGRKGIIPILDIMTRLAEARITMHTQAVLCPGWNDGDALRRTVADLASLYPRVASLAIVPVGLTRHRDRLPLLEPVSADYARDFIYEWLPEAQRLADAFGEPFLFLADEFFIKADAPFPPLDFYGDFPQIENGVGMIPLFMDEADRVLRRARRMKPRTLTVVTGHSPYRYLADFLARLSARTGITFQPVAIPNRLFGESVTVTGLVAGRDILSELAGRNLGDGVLIPDVMLKEGEGVFLDDLTIGALEQGLGVPVVVVPSSPAGVMEGIRALRPLEHHHHHH | not soluble
4 | MAKGTIKTNTPPPAPVVGPPGKSAKYRVKHTITVMSGKGGVGKSTVAVNLAVSLAKKGLKVGLIDADINGPDDPKLLGVEDLKLYADDDGIIPAETKYGVKVVSMGFLLPSQDTPVIWRGSLMHKAIQQFLEDVSWKDTDYVVLDMPPGTGDVALSVAQLVPESNGVVIVVTPQDVALLDAKKAINFARQLKLPIFGIIENMSGFVCPHCGNVTYIFKEGGGEKSAKEYNVPFLGKIPLVPEIADNGDKGIPAVEINDTIKSIFNDIADKILKQILGENVKTEALEHHHHHH | not soluble
5 | LTELYDAIPASIIIIDERMRLIGWNRFSRDTINGLSDNEMPGINPMKRVHPDDLPEMIRKMRNVIDLDIELSAEFRMYHKSGPPYKWAMCRGKRTIIEGKTCVVAVVTEIT | not soluble
6 | MEYFNVGKIVNTQGLQGEMRVLSVSDFAEERFKKGSQLALFDDKDRFVQEVTIVSHRKQKHFDIIKFKDMYHINAIEKYKGYTLKVSKDNQGDLQEGEFYYHQIIGMAVYEKDVLIGHVKEILQPGANDVWIVKRQGKRDLLLPYIPPVVLNVDVPNKRVDVELMEGLDDED | not soluble
7 | MSLRVLGIETSCDETAVAVLDDGKNVVVNFTVSQIEVHQKFGGVVPEVAARHHLKNLPILLKKAFEKVPPETVDVVAATYGPGLIGALLVGLSAAKGLAISLEKPFVGVNHVEAHVQAVFLANPDLKPPLVVLMVSGGHTQLMKVDEDYSMEVLGETLDDSAGEAFDKVARLLGLGYPGGPVIDRVAKKGDPEKYSFPRPMLDDDSYNFSFAGLKTSVLYFLQREKGYKVEDVAASFQKAVVDILVEKTFRLARNLGIRKIAFVGGVAANSMLREEVRKRAERWNYEVFFPPLELCTDNALMVAKAGYEKAKRGMFSPLSLNADPNLNVEGHHHHHH | soluble
8 | MGSDKIHHHHHHNGPIVKGSKNYITKKENLEHFNDISMSGSANIIYQQDSSSRIEIYGSDNIVELLETKVNGKTLNIKFKKNVNIIDKGKLEIKVFSPDLNGLTLNGSGGILFANGIHTEGDLKVTINGSGNLGGSTFDTGHLAISIHGSGDVRLKQIDSKTCSASISGSGNITLDGMTGAAKYNISGSGNIKAADLEATDVYAGISGSGNISCFVNGKLGGHVSGSGNVAYKGNPQAIDFPHKKLRKLD | not soluble
9 | MAHHHHHHMAALQHVNSATEITPLLACGGDYVKNGTQTLSIPSVYATLDALESLWQAQREKQHLSVRGRAQGLRHYHAVYEASARCVPLSLTRWEQWLAGLSEQGARSTVGACPDELSSSSSPHVQRVQKELVDSYWHLYRRLCWGSSGAAKAGLAAVLEHTDSAASGLPSVMATGAASLLAKQEAALAKPLQAFARLSADRHTCSPITR | not soluble
10 | MLELNFSQTLGTHCLTLNETLPASGITAIFGVSGAGKTSLINAISGLTRPQKGRIALNGRVLHDAENGICLTPEKRRIGYVFQDARLFPHYKVRGNLRYGMAKSMTGQFDKLVSLLGIEALLDRLPGSLSGGEKQRVAIGRALLTAPELLLLDEPLASLDIPRKRELLPYLQRLAREINIPMLYVSHSLDEILHLADKVMVLEDGQVKAFGPLEEVWGSSVMHPWLPKEQQSSILKVSVLEHHPHYAMTALALGDQHLWVNKLNQPLQSTLRIRIQASDVSLVLQPPQQTSIRNVLRAKVANCYDDNGQVEVQLEIGGRTLWARISPWARDELNIKPGLWLYAQVKSVSITA | not soluble
11 | MARTEKKKDVVIVGLGWTGAIAGMELAAEGLEIVALERGRDQNTVPEFKYPNQIDELTYGVRLVNMQHPSQQTVTVRRNDAETALPYRSMGSFLPANGVGGAGTHWNGLLWRPQPQEIQLRSYVKERWGESIIPEGMNLMDYPVTYDELEPFFTRFDEVAGISGKAGNLKGKIQPGGNPFEGWRSSEYPMPPMPPTYDATKFRDAAQAMGYHPFPAPAGVASTAYVNPYGMQMAPCNFCGFCERFGCYQYSKSSPQTAILDALKRKPNFSYRTHAEVLRIESSADGKTATGVTYFDAAAQEEVFQPADLVILAAYQLNNVHLLLLSGIGEPYDPATNTGVTGKNYAYQMNGGVTMFFKDANFNPFIGHGSNGFCIDDFSVNQNDFGALGFIGGAYWRSGTFNGQPIRSMILPAGTPGWGAGWKKAIGQWYGHSMSIGTHGSHMAYRANHLDLDPTYKDPHGRPLMRMTFNWQDNDLRMNQYMKLKAGEVGKAMKPDLMQLGFKGPGAMYDVRPYQTTHNTGGHIMSRDPREGVVNRYCQAWDKHNVFVMGAGNFVQNTQYNPTGMVGALAYWTIHAIRTQYLRDPRPLVLEHHHHHH | not soluble
12 | GPGSMAVQPGKVLAEQFSRQGIQYEESTDVLWCSLCTKADSLEIISRATVEDVLEHCRLRQHLLLMEKETVKEHYCPVEINGRSFLLDHNCVYPSTMFGKGRMLLDDTLGCVMTEDVCGGVKLLPRHKYTVVEIVIPPAGTPIPKDPSYYVERPVRSRKCHEKFDSWIQVHNSSVEGESALMKRRRIAFSQLNM | not soluble
13 | SDKLNKITVPASQKLRQLQKMVHDIKNNEGGIMNKIKKLKVKAPPSVPRRDYASESPADEEQQWSDDFDSDYENPDEHSDSEMYVMPAEENADDSYEPPPVEQETRPVHPALPFARGEYIDNRSSQRHSPPFSKTLPSKPSWPSEKARLTSTLPALTALQKPQVPPKPKGLLEDEADYVVPVEDNDENYIHPTESSSPPPEKAPMVNRSTKPNSSTPASPPGTASGRNSGAWETKSPPPAAPSPLPRAGKKPTTPLKTTPVASQQNASSVCEEKPIPAERHRGSSHRQEAVQSPVFPPAQKQIHQKPIPLPRFTEGGNPTVDGPLPSFSSNSTISEQEAGVLCKPWYAGACDRKSAEEALHRSNKDGSFLIRKSSGHDSKQPYTLVVFFNKRVYNIPVRFIEATKQYALGRKKNGEEYFGSVAEIIRNHQHSPLVLIDSQNNTKDSTRLKYAVKVS | soluble
14 | RMSEQSICQARAAVMVYDDANKKWVPAGGSTGFSRVHIYHHTGNNTFRVVGRKIQDHQVVINCAIPKGLKYNQATQTFHQWRDARQVYGLNFGSKEDANVFASAMMHALEVLNS | soluble
15 | MWTVTKIRADYEGWWLFSDWPENIVEKYQYQDFDDMFKHYQQLINQCKVQFDNYVTGKYNIYAFYNNCDMNYCEDCEEDLQIFYSFIVLQNNEVYYKLPIIDLEHHHHHH | soluble
16 | MQDRCPHQDHRSIPTIMPDLEPDTVSALEAPEFAPAQFVRWFREVAPYVHAFRGKTFVVAFGGELVQAGALNVLVQDLSLLSALGIHLVLVHGSRPQVNEQLRLKGYTQQFGRGLAPTDPAALECAKEAAGEIRLDIEAAFSQGLPNTPMSHSHIRVLSGNFVTARPTGVVDGIDYKHTGQVRKIDVDALKFAIEQGSVVLLSPLGFSPTGDAFNLAMEDLATSVAVALRAEKLIFLSGEPGVLDGNGAVDTELARVDADALLARGELDEDTTYFLQHASLAVKRGVARAHLVPYALDGSVLLEIFTHDGVGTMVVEDTLDDLRAATLDDVGAILSLIEPLETDGTLVPRPRSAIERDVERFTVLEHDGVIYGCAALYPFPEDQMAEMACLIVHPEWQGSGEGEILLRHMESRARASGARRLFVLTTRTSHWFMKRGFVRGGVADLPRDKQNNYNRSRNSLVFIKKL | not soluble
17 | MSTLLPFPCEEKIPEGKYVLRTFEIKEGQVKEKLKDLNYEILASLSGVDLTFEKEEEWKKAKEILSDYVYTDRPESLEETLGRILKEKGFTLSTAESCTAGMLSSRIVNVPGSSEYFVGGFVVYSNDLKVKYLCVSEDTLKKYGAVSWQTCLEMTVGLKSNLGTDCGIAITGIAGPGGTLTKPQGLTYIGIFVKDKLTVIKRIFKGSRNENRFLSTQTAIFYLLKLLKR | soluble
18 | MPSNIRESDASCLEMIRSIIRSTADDNSKWVEIFVDFENAQPTDEEREIYNMAEEVLNDCDLVLADVSSYGNGCYAERNQLKNDSDTQALKVLMTKLEPFVARTCSYYEHVAKIEKIVPIILWELSSGPLPLEEQLANKQSIAKQFARLIGFVLDFDVVKMRTAQITNDYSYYRRAKHIVYQDFEDQGVPELPQVQMFLCEGNPMLKALCNGVDSYMQTHQSLPINNTTDVFVTIINVCRFMLANDECLARLTDSSKHLCCRVMTGLVILFDHVDQNGAFVSNSSIDMRDVVRLIKLNTTPEQSDCLLAGLRFTTKHYNDSSTPKSLRHLIEVK | soluble
19 | AIASFRTCHNWFPLCLLLKETNNDISGEGIYSSRSELFQQPLAKETQRWSTGPSFVKHYGRLKRHSLPAVHFFDNSQSFLQNLQPNETFPETTTLDWKELENATRLLNDFMESASEDGDSLFDDEFPTMHAKTKLQDGLSTHPQSPPSDITQSVLSNTQSPVPSMLSETELPDFGEDFVNANEELVS | soluble
20 | ERFAREPMAAGHRMWQMAGLKAQRAQTDVNNKKAAFDAAAKEKSDADVALSSALERRKQKENKEKDAKAKLDKESKRNKPGKATGKGKPVNNKWLNNAGKDLGSPVPDRIANKLRDKEFKSFDDFRKKFWEEVSKDPELSKQFSRNNNDRMKVGKAPKTRTQDVSGKRTSFELHHEKPISQNGGVYDMDNISVVTPKRHIDIHRGK | soluble
21 | MTQTTQSPALIASQSSWRCVQAHDREGWLALMADDVVIEDPIGKSVTNPDGSGIKGKEAVGAFFDTHIAANRLTVTCEETFPSSSPDEIAHILVLHSEFDGGFTSEVRGVFTYRVNKAGLITNMRGYWNLDMMTFGNQE | soluble
22 | MSDMSDLEDDQTGHCGSGEHSGPFDPKRHAREQHNALERRRRDNIKDMYTSLREVVPDANGERVQASRAVILKKAIESIEKGQSDSATLSVDVAEQESKNAKLREEIARLKAKKDPSSSQSIIQ | not soluble
